The values below come from patent US4705845A, “Process for sulphation and phosphorylation of proteins and peptides” (Rockefeller University, priority 1986, dated 1987).

Data set [1] in a line: Aggregation tendency assessed by turbidity of the solution (absorbance difference at 400 nm). To be noted: 0 to 0.1 A non-aggregated, above 0.3 aggregated. The data set is classed as physicochemical. On the procedure: The tendency of modified insulin to aggregate was assessed by measuring the turbidity of the solution. This method is based on the work of Leach and Scheraga (S. J. Leach and H. A. Scheraga (1964) J. Amer. Chem. Soc. 82, 4790-4792) who stated that absorbancy observed in insulin solutions between 350 and 600 nm is due to light scattering of aggregated particles. Briefly, 10 mg of sample was dissolved in 2 ml of isotonic phosphate buffered saline (PBS) and the solution was passed 50 times through a 3 cc plastic syringe (B-D Plastipak, Luer Lok Type) equipped with a 26G 3/8" hypodermic needle. After deaeration under vacuo for 60 min. 1 ml of this solution was diluted with 1 ml of PBS, and the turbidity was measured on a Hewlett Packard spectrophotometer type HP 8590, utilizing as a blank a non-aggregated sample diluted by 1 volume of 8M guanidine hydrochloride. Aggregation was measured by the difference in absorbance determined at 400 nm for the two samples. Non-aggregated samples gave absorbance values of 0 to 0.1 Absorbance Unit(A), Values above 0.3 were considered to be aggregated. Utilizing this assay the turbidity of this modified insulin dissolved in PBS was 0.08 A. In contrast unmodified porcine sodium insulin dissolved in distilled water has an absorbance of 0.51 A when treated according to the above procedure.

Data set [2] in a line: Hypoglycemic potency (United States Pharmacopeia method). Type of data set: in vivo. As to conditions: relative to unmodified insulin; USP Vol. 18 method. The method, then: Hypoglycemic potency of the modified insulin was measured as described in "The United States Pharmacopeia", Mark Publishing Co., Vol. 18, pp. 883-884 (1964). Bioactivity was 62% as compared to unmodified insulin.

With “Example 1: porcine sodium insulin sulphated with sulfuric acid and N,N' dicyclohexyl carbodiimide in DMF; mixture of sulphated isomers”, in data set [1] (dissolved in PBS, passed 50 times through a 26G needle), the “Turbidity (difference in absorbance at 400 nm)” value is 0.08 A. In addition, the “Bioactivity as compared to unmodified insulin (hypoglycemic potency)” value in data set [2] is 62%.
With “Example 4: porcine sodium insulin phosphorylated with concentrated phosphoric acid and DCC in DMF”, the “Bioactivity as compared to unmodified insulin (hypoglycemic potency)” value in data set [2] worked out at 85%.
As to “unmodified porcine sodium insulin: unmodified porcine sodium insulin, starting material and comparator [reference compound]”, in data set [1] (dissolved in distilled water, treated according to the same procedure), the “Turbidity (difference in absorbance at 400 nm)” value is 0.51 A.
